US20180031580

Target: insulin-like growth factor type 1 (IGF-1)

B1: dipeptidyl-peptidase 4 (DPP-4) (protein)
chain: NKGTDDATADSRKTYTLTDYLKNTYRLKLYSLRWISDHEYLYKQENNILVFNAEYGNSSVFLENSTFDEFGHSINDYSISPDGQFILLEYNYVKQWRHSYTASYDIYDLNKRQLITEERIPNNTQWVTWSPVGHKLAYVWNNDIYVKIEPNLPSYRITWTGKEDIIYNGITDWVYEEEVFSAYSALWWSPNGTFLAYAQFNDTEVPLIEYSFYSDESLQYPKTVRVPYPKAGAVNPTVKFFVVNTDSLSSVTNATSIQITAPASMLIGDHYLCDVTWATQERISLQWLRRIQNYSVMDICDYDESSGRWNCLVARQHIEMSTTGWVGRFRPSEPHFTLDGNSFYKIISNEEGYRHICYFQIDKKDCTFITKGTWEVIGIEALTSDYLYYISNEYKGMPGGRNLYKIQLSDYTKVTCLSCELNPERCQYYSVSFSKEAKYYQLRCSGPGLPLYTLHSSVNDKGLRVLEDNSALDKMLQNVQMPSKKLDFIILNETKFWYQMILPPHFDKSKKYPLLLDVYAGPCSQKADTVFRLNWATYLASTENIIVASFDGRGSGYQGDKIMHAINRRLGTFEVEDQIEAARQFSKMGFVDNKRIAIWGWSYGGYVTSMVLGSGSGVFKCGIAVAPVSRWEYYDSVYTERYMGLPTPEDNLDHYRNSTVMSRAENFKQVEYLLIHGTADDNVHFQQSAQISKALVDVGVDFQAMWYTDEDHGIASSTAHQHIYTHMSHFIKQCFSLP
  phosphorylation level of ERK or Akt (western blot): when the eNOS-deficient mice treated with IGF-1 was treated with DPP-4, the phosphorylation level of ERK or Akt which is the protein involved in intracellular signaling was reduced
